According to patent publication US11155602B2, “Polypeptides targeting HIV fusion” (priority 2015, dated 2021):
Positions count from the first letter of the chain named.

B1: 184 (protein)
chain: MGHHHHHHGGSVSDVPRDLEVVAATPTSLLISWEYKVHPYRYYRITYGETGGNSPVQEFTVPSVLSTATISGLKPGVDYTITVYAVTYGDVSAPISINYRTEID
modifications: Adnectin
B2: 197 (protein)
chain: B1 chain with V91D, A93G
modifications: Adnectin
B3: 196 (protein)
chain: B1 chain
modifications: Adnectin
B4: 216 (protein)
chain: B1 chain with G72D, V91D, A93H
modifications: Adnectin
B5: 209 (protein)
chain: B1 chain with V91D, A93T
modifications: Adnectin
B6: 186 (protein)
chain: B1 chain with D90E, V91D
modifications: Adnectin
B7: 192 (protein)
chain: B1 chain with D90T, V91D
modifications: Adnectin
B8: 213 (protein)
chain: B1 chain with V91D, A93W
modifications: Adnectin
B9: 191 (protein)
chain: B1 chain with D90T, V91D
modifications: Adnectin
B10: 189 (protein)
chain: B1 chain with D90K, V91D
modifications: Adnectin
B11: 193 (protein)
chain: B1 chain with D90K, V91D
modifications: Adnectin
B12: 203 (protein)
chain: B1 chain with V91D, A93G
modifications: Adnectin
B13: 190 (protein)
chain: B1 chain with D90A, V91D
modifications: Adnectin
B14: 194 (protein)
chain: B1 chain with V91P
modifications: Adnectin
B15: 210 (protein)
chain: B1 chain with V91D, A93S
modifications: Adnectin
B16: 187 (protein)
chain: B1 chain with T60K, V91D
modifications: Adnectin
B17: 195 (protein)
chain: B1 chain with V91D, A93Q
modifications: Adnectin
B18: 212 (protein)
chain: B1 chain with Y88H, V91D
modifications: Adnectin
B19: 199 (protein)
chain: B1 chain with V91D, A93Q
modifications: Adnectin
B20: 188 (protein)
chain: B1 chain with V91L
modifications: Adnectin
B21: 207 (protein)
chain: B1 chain with G48W, V91D
modifications: Adnectin
B22: 206 (protein)
chain: B1 chain with V91D, A93K
modifications: Adnectin
B23: 200 (protein)
chain: B1 chain with G48T, V91D
modifications: Adnectin
B24: 215 (protein)
chain: B1 chain with E34K, K36D, V91D
modifications: Adnectin
B25: 214 (protein)
chain: B1 chain with Y88H, V91D
modifications: Adnectin
B26: 202 (protein)
chain: B1 chain with V91D, A93K
modifications: Adnectin
B27: 218 (protein)
chain: B1 chain with S71R, V91D
modifications: Adnectin
B28: 201 (protein)
chain: B1 chain with V91Q
modifications: Adnectin
B29: 211 (protein)
chain: B1 chain with Y88R, V91D
modifications: Adnectin
B30: 205 (protein)
chain: B1 chain with K36D, V91D
modifications: Adnectin
B31: 198 (protein)
chain: B1 chain with V91D, N98Q
modifications: Adnectin
B32: 219 (protein)
chain: B1 chain with E34K, V91D
modifications: Adnectin
B33: 217 (protein)
chain: B1 chain with Y88R, V91D
modifications: Adnectin
B34: 208 (protein)
chain: B1 chain with V91D, A93T
modifications: Adnectin
B35: 121 (protein)
chain: MGHHHHHHGGVSDVPRDLEVVAATPTSLLISWEYNVNPYRYYRITYGETGGNSPVQEFTVPSVLSTAEISGLKPGVDYTITVYAVTYGVDSDPISINYRTPGG
modifications: Adnectin
B36: 122 (protein)
chain: B35 chain with E33Q, N35K, N37H, Y87R, D92A
modifications: Adnectin
B37: 123 (protein)
chain: MGVSDVPRDLEVVAATPTSLLISWEYKVHPYRYYRITYGETGGNSPVQEFTVPSVLSTATISGLKPGVDYTITVYAVTRGVDSAPISINYRTEIDKPSQHHHHHH
modifications: Adnectin

Test system: NL-Rluc virus
Test: Combinectin potency assay: antiviral EC50, NL-Rluc virus in MT-2 cells, luciferase readout
Assay type: cell-based, HIV-1
Settings: Anti-N17 Adnectin, Table 3
How it was run: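 Peptides, serially diluted threefold over 11 points in triplicate, were exposed for 4–5 days to MT-2 cells preinfected 1 h with NL-Rluc virus (MOI 0.01). Replication read out as Renilla luciferase signal, with EC50 derived against untreated infected controls.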

Compared with B1, B2 is 4-fold higher in EC50: 20 nM for the first, 81 nM for the second.

Compared with B3, B4 is higher in EC50: 86 nM for the first, over 1000 nM for the second. The first is the more potent here.

Going from B5 to B6, the EC50 rises from 20 nM to 2830 nM (140-fold).

B7 and B8 cannot be ordered by EC50: 2830 nM for the first, over 1000 nM for the second.

B9 and B10 cannot be ordered by EC50: over 1000 nM for the first, over 1000 nM for the second.

Going from B11 to B12, the EC50 falls from 252 nM to 86 nM (2.9-fold).

B13 and B14 cannot be ordered by EC50: over 1000 nM for the first, over 1000 nM for the second.

Going from B15 to B16, the EC50 falls from 143 nM to 86 nM (1.7-fold).

Going from B17 to B18, the EC50 falls from over 1000 nM to 86 nM.

Going from B19 to B20, the EC50 falls from over 1000 nM to 86 nM. The second is the more potent here.

Compared with B21, B22 is lower in EC50: over 1000 nM for the first, 237 nM for the second. The second is the more potent here.

B23 and B24 cannot be ordered by EC50: over 1000 nM for the first, over 1000 nM for the second.

B25 and B26 cannot be ordered by EC50: over 1000 nM for the first, over 1000 nM for the second.

Compared with B27, B28 is 3.1-fold lower in EC50: 62 nM for the first, 20 nM for the second.

Going from B29 to B30, the EC50 falls from 631 nM to 86 nM (7.3-fold).

B31 and B32 cannot be ordered by EC50: 2830 nM for the first, over 1000 nM for the second.

B33 and B34 cannot be ordered by EC50: over 1000 nM for the first, over 1000 nM for the second.

First: B35
Second: B36
The EC50 of the first is 9.5-fold higher: 57 nM for the first, 6 nM for the second.

Work on B37 yielded an EC50 of 28 nM.
